Experiments:
[1] = biological target: Arp2/3 complex (bovine (purified from bovine brain)) (UniProt P61157)
[2] = biological target: Arp2/3 complex (bovine (purified from bovine brain)) (UniProt P61157); remark: listed apart in the source

| Substance | increase of the detachment rate of SPIN90-Arp2/3-nucleated filaments, 0-1 µM VCA [1] [fold] | acceleration of debranching of Arp2/3-mediated branches, 0-3 µM VCA [2] [fold] |
| --- | --- | --- |
| GST-N-WASP-VCA (from UniProt O00401 392-505) (domain or fragment) | < 16 |  |
| GST-WASH-VCA (from UniProt Q8VDD8 319-475) (domain or fragment) |  | < 83 |
